Data taken from US20110189183A1.

B1: 1H12 Fab (Fab, V domains shown)
VH: EVQLVESGGGLVKAGGSLILSCGVSNFRISAHTMNWVRRVPGGGLEWVASISTSSTYRDYADAVKGRFTVSRDDLEDFVYLQMHKMRVEDTAIYYCARKGSDRLSDNDPFDAWGPGTVVTVSP
VL: GVVMTQSPSTLSASVGDTITITCRASQSIETWLAWYQQKPGKAPKLLIYKASTLKTGVPSRFSGSGSGTEFTLTISGLQFDDFATYHCQHYMPYRASFGQGTRVEIKR
B2: P2H12 IgG (antibody, V domains shown)
VH: EVQLVESGGGLVKAGGSLILSCGVSNFRISAHTMNWVRRVPGGGLEWVASISTSSTYRDYADAVKGRFTVSRDDLEDFVYLQMHKMRVEDTAIYYCARKGSDRLSDNDPFDAWGPGTVVTVSP
VL: GVVMTQSPSTLSASVGDTITITCRASQSIETWLAWYQQKPGKAPKLLIYKASTLKTGVPSRFSGSGSGTEFTLTISGLQFDDFATYHCQHYTDHHGATFGQGTRVEIKR
B3: ID-1-RD4-P2G9 Fab (Fab, V domains shown)
VH: EVQLVESGGGLVKAGGSLILSCGVSNFRISAHTMNWVRRVPGGGLEWVASISTSSTYRDYADAVKGRFTVSRDDLEDFVYLQMHKMRVEDTAIYYCARKGSDRLSDNDPFDAWGPGTVVTVSP
VL: GVVMTQSPSTLSASVGDTITITCRASQSIETWLAWYQQKPGKAPKLLIYKASTLKTGVPSRFSGSGSGTEFTLTISGLQFDDFATYHCQHYQPFDATFGQGTRVEIKR
B4: ID-1-RD5-P2H8 Fab (Fab, V domains shown)
VH: EVQLVESGGGLVKAGGSLILSCGVSNFRISAHTMNWVRRVPGGGLEWVASISTSSTYRDYADAVKGRFTVSRDDLEDFVYLQMHKMRVEDTAIYYCARKGSDRLSDNDPFDAWGPGTVVTVSP
VL: GVVMTQSPSTLSASVGDTITITCRASQSIETWLAWYQQKPGKAPKLLIYKASTLKTGVPSRFSGSGSGTEFTLTISGLQFDDFATYHCQHYREWHATFGQGTRVEIKR
B5: A2A12 IgG (antibody, V domains shown)
VH: EVQLVESGGGLVKAGGSLILSCGVSNFRISAHTMNWVRRVPGGGLEWVASISTSSTYRDYADAVKGRFTVSRDDLEDFVYLQMHKMRVEDTAIYYCARKGSDRLSDNDPFDAWGPGTVVTVSP
VL: GVVMTQSPSTLSASVGDTITITCRASQSIETWLAWYQQKPGKAPKLLIYKASTLKTGVPSRFSGSGSGTEFTLTISGLQFDDFATYHCQHYTAHTGATFGQGTRVEIKR
B6: P2H12 Fab (Fab, V domains shown)
VH: EVQLVESGGGLVKAGGSLILSCGVSNFRISAHTMNWVRRVPGGGLEWVASISTSSTYRDYADAVKGRFTVSRDDLEDFVYLQMHKMRVEDTAIYYCARKGSDRLSDNDPFDAWGPGTVVTVSP
VL: GVVMTQSPSTLSASVGDTITITCRASQSIETWLAWYQQKPGKAPKLLIYKASTLKTGVPSRFSGSGSGTEFTLTISGLQFDDFATYHCQHYTDHHGATFGQGTRVEIKR
B7: ID-2-RD4-P1A5 Fab (Fab, V domains shown)
VH: EVQLVESGGGLVKAGGSLILSCGVSNFRISAHTMNWVRRVPGGGLEWVASISTSSTYRDYADAVKGRFTVSRDDLEDFVYLQMHKMRVEDTAIYYCARKGSDRLSDNDPFDAWGPGTVVTVSP
VL: GVVMTQSPSTLSASVGDTITITCRASQSIETWLAWYQQKPGKAPKLLIYKASTLKTGVPSRFSGSGSGTEFTLTISGLQFDDFATYHCQHYLSYNATFGQGTRVEIKR
B8: A1E8 IgG (antibody, V domains shown)
VH: EVQLVESGGGLVKAGGSLILSCGVSNFRISAHTMNWVRRVPGGGLEWVASISTSSTYRDYADAVKGRFTVSRDDLEDFVYLQMHKMRVEDTAIYYCARKGSDRLSDNDPFDAWGPGTVVTVSP
VL: GVVMTQSPSTLSASVGDTITITCRASQSIETWLAWYQQKPGKAPKLLIYKASTLKTGVPSRFSGSGSGTEFTLTISGLQFDDFATYHCQHYTDHKGATFGQGTRVEIKR
B9: A1G7 IgG (antibody, V domains shown)
VH: EVQLVESGGGLVKAGGSLILSCGVSNFRISAHTMNWVRRVPGGGLEWVASISTSSTYRDYADAVKGRFTVSRDDLEDFVYLQMHKMRVEDTAIYYCARKGSDRLSDNDPFDAWGPGTVVTVSP
VL: GVVMTQSPSTLSASVGDTITITCRASQSIETWLAWYQQKPGKAPKLLIYKASTLKTGVPSRFSGSGSGTEFTLTISGLQFDDFATYHCQHYTDHRGATFGQGTRVEIKR
B10: ID-3-RD5-P2E9 Fab (Fab, V domains shown)
VH: EVQLVESGGGLVKAGGSLILSCGVSNFRISAHTMNWVRRVPGGGLEWVASISTSSTYRDYADAVKGRFTVSRDDLEDFVYLQMHKMRVEDTAIYYCARKGSDRLSDNDPFDAWGPGTVVTVSP
VL: GVVMTQSPSTLSASVGDTITITCRASQSIETWLAWYQQKPGKAPKLLIYKASTLKTGVPSRFSGSGSGTEFTLTISGLQFDDFATYHCQHYTPHFGATFGQGTRVEIKR
B11: ID-3-RD5-P2H7 Fab (Fab, V domains shown)
VH: EVQLVESGGGLVKAGGSLILSCGVSNFRISAHTMNWVRRVPGGGLEWVASISTSSTYRDYADAVKGRFTVSRDDLEDFVYLQMHKMRVEDTAIYYCARKGSDRLSDNDPFDAWGPGTVVTVSP
VL: GVVMTQSPSTLSASVGDTITITCRASQSIETWLAWYQQKPGKAPKLLIYKASTLKTGVPSRFSGSGSGTEFTLTISGLQFDDFATYHCQHYRAHSGATFGQGTRVEIKR
B12: ID-1-RD4-P2C10 Fab (Fab, V domains shown)
VH: EVQLVESGGGLVKAGGSLILSCGVSNFRISAHTMNWVRRVPGGGLEWVASISTSSTYRDYADAVKGRFTVSRDDLEDFVYLQMHKMRVEDTAIYYCARKGSDRLSDNDPFDAWGPGTVVTVSP
VL: GVVMTQSPSTLSASVGDTITITCRASQSIETWLAWYQQKPGKAPKLLIYKASTLKTGVPSRFSGSGSGTEFTLTISGLQFDDFATYHCQHYKPFMATFGQGTRVEIKR
B13: A4F10 Fab (Fab, V domains shown)
VH: EVQLVESGGGLVKAGGSLILSCGVSNFRISAHTMNWVRRVPGGGLEWVASISTSSTYRDYADAVKGRFTVSRDDLEDFVYLQMHKMRVEDTAIYYCARKGSDRLSDNDPFDAWGPGTVVTVSP
VL: GVVMTQSPSTLSASVGDTITITCRASQSIETWLAWYQQKPGKAPKLLIYKASTLKTGVPSRFSGSGSGTEFTLTISGLQFDDFATYHCQHYTDHYGATFGQGTRVEIKR
B14: ID-2-RD6-P1H10 Fab (Fab, V domains shown)
VH: EVQLVESGGGLVKAGGSLILSCGVSNFRISAHTMNWVRRVPGGGLEWVASISTSSTYRDYADAVKGRFTVSRDDLEDFVYLQMHKMRVEDTAIYYCARKGSDRLSDNDPFDAWGPGTVVTVSP
VL: GVVMTQSPSTLSASVGDTITITCRASQSIETWLAWYQQKPGKAPKLLIYKASTLKTGVPSRFSGSGSGTEFTLTISGLQFDDFATYHCQHYQPFKATFGQGTRVEIKR
B15: ID-2-RD6-P1H11 Fab (Fab, V domains shown)
VH: EVQLVESGGGLVKAGGSLILSCGVSNFRISAHTMNWVRRVPGGGLEWVASISTSSTYRDYADAVKGRFTVSRDDLEDFVYLQMHKMRVEDTAIYYCARKGSDRLSDNDPFDAWGPGTVVTVSP
VL: GVVMTQSPSTLSASVGDTITITCRASQSIETWLAWYQQKPGKAPKLLIYKASTLKTGVPSRFSGSGSGTEFTLTISGLQFDDFATYHCQHYMAYDATFGQGTRVEIKR
B16: A1G7 Fab (Fab, V domains shown)
VH: EVQLVESGGGLVKAGGSLILSCGVSNFRISAHTMNWVRRVPGGGLEWVASISTSSTYRDYADAVKGRFTVSRDDLEDFVYLQMHKMRVEDTAIYYCARKGSDRLSDNDPFDAWGPGTVVTVSP
VL: GVVMTQSPSTLSASVGDTITITCRASQSIETWLAWYQQKPGKAPKLLIYKASTLKTGVPSRFSGSGSGTEFTLTISGLQFDDFATYHCQHYTDHRGATFGQGTRVEIKR
B17: A4F10 IgG (antibody, V domains shown)
VH: EVQLVESGGGLVKAGGSLILSCGVSNFRISAHTMNWVRRVPGGGLEWVASISTSSTYRDYADAVKGRFTVSRDDLEDFVYLQMHKMRVEDTAIYYCARKGSDRLSDNDPFDAWGPGTVVTVSP
VL: GVVMTQSPSTLSASVGDTITITCRASQSIETWLAWYQQKPGKAPKLLIYKASTLKTGVPSRFSGSGSGTEFTLTISGLQFDDFATYHCQHYTDHYGATFGQGTRVEIKR
B18: ID-3-RD6-P1H10 Fab (Fab, V domains shown)
VH: EVQLVESGGGLVKAGGSLILSCGVSNFRISAHTMNWVRRVPGGGLEWVASISTSSTYRDYADAVKGRFTVSRDDLEDFVYLQMHKMRVEDTAIYYCARKGSDRLSDNDPFDAWGPGTVVTVSP
VL: GVVMTQSPSTLSASVGDTITITCRASQSIETWLAWYQQKPGKAPKLLIYKASTLKTGVPSRFSGSGSGTEFTLTISGLQFDDFATYHCQHYTAHNGATFGQGTRVEIKR

How the values were obtained:
[1] = target: Candida albicans (Cat. No. 10231, ATCC) whole cells (Candida albicans); test: luminescent C. albicans ELISA, Fab; assay background 950
[2] = target: Candida albicans (Cat. No. 10231, ATCC) whole cells (Candida albicans); test: converted from Table 20a with a Fab of about 50 kDa
[3] = target: Candida albicans (Cat. No. 10231, ATCC) whole cells (Candida albicans); test: luminescent ELISA, Fab on C. albicans cells
[4] = target: Candida albicans (Cat. No. 10231, ATCC) whole cells (Candida albicans); test: C. albicans FACS, mean FITC fluorescence, Fab; assay background 100
[5] = target: Candida albicans (Cat. No. 10231, ATCC) whole cells (Candida albicans); test: FACS, IgG on fixed cells
[6] = target: Candida krusei clinical isolate, whole cells (Candida krusei); test: FACS, IgG on fixed cells

Binder | ELISA (RFU) [1] | affinity (converted to molar) [2] | Approximate Affinity [3] | FACS (MF) [4] | affinity [5] | affinity [6]
B1 | 1710 RFU | 180 nM | 9 µg/mL | 2080 MF |  | 
B2 |  |  |  |  | 50 nM | 50 nM
B3 | 4000 RFU |  |  | 2350 MF |  | 
B4 | 3500 RFU |  |  | 4930 MF |  | 
B5 |  |  |  |  | 50 nM | 50 nM
B6 |  | 40 nM | 2 µg/mL |  |  | 
B7 | 8140 RFU |  |  | 4000 MF |  | 
B8 |  |  |  |  | 50 nM | 50 nM
B9 |  |  |  |  | 50 nM | 50 nM
B10 | 8000 RFU |  |  | 8910 MF |  | 
B11 | 27000 RFU |  |  | 10600 MF |  | 
B12 | 7900 RFU |  |  | 10600 MF |  | 
B13 |  | 20 nM | 1 µg/mL |  |  | 
B14 | 5000 RFU |  |  | 2190 MF |  | 
B15 | 13000 RFU |  |  | 3760 MF |  | 
B16 |  | 30 nM | 1.5 µg/mL |  |  | 
B17 |  |  |  |  | 50 nM | 50 nM
B18 | 50000 RFU |  |  | 3380 MF |  | 
